This note sets out measurements from the DeepSol protein solubility set.

A short description of the series: soluble on expression in E. coli; label from the status in PepcDB or PDB records.
On to “LTLKNPIMVVGLPGVGLVGKLVAEHLVDELAAERIMEVYSPHFPPQVLVNKDCTVRPVSNTIYLGKANETDVLFLVGDHQSTTAQGHYELCSLYLDIAEELKVPRIYTLGGYPTGKLTYEDTVLGVANSTELIEEIKQYGVEFRESEPSGGIVGASGLLVAFSGMRGIDAACLMGMTPGYLMDPKSAQSLLKVLCNIFGIEVNTDSLKKKAEEMENILEKLKEKEEQQNLPEVKPTEEDLRYIG”, for which the “soluble on expression in E. coli” value is reported as “not soluble”.

Consider “LTRFFGDFFLDIEVKLADVAMMYGLNLGYELQDKTLSNIVEEQLGSTPVLGDQFEWQGLQWVIADVVDHQVTKVGLRLPNEEEEGEEED”, for which the “soluble on expression in E. coli” value is reported as “not soluble”.

For the sequence “LVLEGGGMRGLYTAGVLDAFLEAGIKVDGVVSVSAGALFGVNYLSNQPKRALRYNKRFMGDRRYMSFWSWLTTGNFVNKEFSYYKVPMELDVFDQDAFAESGVPFYVVATDIKTGKPDYIKIDHVFEQMEALRASSALPLVSEIVEYKGKRYMDGGLADSLPI”, the “soluble on expression in E. coli” value was “not soluble”.

Regarding “LVPRGSAMGISNDSSRGANRTIVVTTILESPYVMYKKNHEQLEGNERYEGYCVDLAYEIAKHVRIKYKLSIVGDGKYGARDPETKIWNGMVGELVYGRADIAVAPLTITLVREEVIDFSKPFMSLGISIMIKKGTPIESAEDLAKQTEIAYGTLDSGSTKEFFRRSKIAVYEKMWSYMKSAEPSVFTKTTADGVARVRKSKGKFAFLLESTMNEYIEQRKPCDTMKVGGNLDSKGYGVATPKGSALGTPVNLAVLKLSEQGILDKLKNKWWYDKGECG”, the “soluble on expression in E. coli” value is recorded as “soluble”.

“LVSSPSTLNPGTNVAKLAEQAPVHWVSVAQIENSLTGRPPMAVGFDIDDTVLFSSPGFWRGKKTYSPDSDDYLKNPAFWEKMNNGWDEFSIPKEAARQLIDMHVRRGDSIYFVTGRSQTKTETVSKTLADNFHIPAANMNPVIFAGDKPEQNTRVQWLQEKNMRIFYGDSDNDITAARDCGIRGIRILRAANSTYKPLPQAGAFGEEVIVNSEY”: the “soluble on expression in E. coli” value is listed as “soluble”.

For “LWVYPARKPRGKAIIMCPGGGFNQIASDHEGRDFAAWFNNQGITYAVLNYRMPHGDVEVIREDIREAIRLIRRQSAEWGIHQLGVMGASIGGYIAATAATLYTGTDRPDFQVLLYPVISMTDRLTHWPSRERMLGETISEGLKETLSLELHVTADTPPTFIVLAEDDQAVSPLNSIVYYTALLKHGVSAGLHIYPEGGHSFGFRDSFIYKELWTDELQKWL”, the “soluble on expression in E. coli” value is reported as “not soluble”.

Consider “LYIHGFASSGESHKAKALKAGLAPYEVMTPTLSYVPSLAFQTLRQLVDESLAQKEELTLIGASLGGYYATQLSWLYNLKAILINPAITPYETL”, for which the “soluble on expression in E. coli” value is listed as “not soluble”.

For the sequence “MAAAKIKKGDTVLVVRGKEKGKQGKVLKVYERVKRRDKQGNPVYVRHFVIVEGVRLIKKHVKPIEGVREGGIIETEGPIDISNVMLICPNCNKPTRVGFRIVEEGNVRRKYRYCKKCNENIDLVSEKVIKGG”, the “soluble on expression in E. coli” value is “soluble”.

With “MAADVGQALAFLQQVKTTQGASIYEGLKAALAKVLEDRPVNAVEALETSVLSTPPAANLSVPLVPAASAAAAAAAVAKASLFGDPEPVLDPESGEPIDPDAPNEFECEDVEGDGDLLDGLGVGLGRQEMYAAMLAVKRLGEDAKRGVSTVRFFGKFFGTQADYYVFETTLQSNPDMPEAPEGTIPLEPYGEGVNAYIYFVSNTLGGPLQQLPYVTPEQIKASRLLRRYLTGRLDAPVSAFPAFPGNEANYLRALIARISAATVCCPRGFFTADDDSAELSANDEWVPLKGREMALPVNWSHRYAHLKGQGRTVTHKRDPPDEEEEPEKNFWTAEEMEAGPPPLATLDTDAPLPAATGDKVPPPAWSPVFASASVTTRNQVAGVRSNRWPGAVCACAGRHFTSMYVGWGIKAGGEWSPCPPPPPVPQWGAPAAGVEGGQQLLLECNDLPPKPAPPEEEDE”, the “soluble on expression in E. coli” value is reported as “not soluble”.

On to “MAAFSVHILGCGSALPTTHHHPSSQVIDLRDKLYMIDCGEGVQRQFRHEKLHFGRLIHIFISHLHGDHCFGLPGFISTLGLLGRTGTLHVHGPEGIERFLSPILEQFCHRMPYQVEIHTIDASRHALVHEDKSVKVYSIPLSHRIPAVGYLFEEKCRARHLNKAAAEFYNIPLAEYPLIIEGSDYTTPDGRIIPNRHLTTPGTPPRRYAYCSDTEFCPSIVPIIQGVDLLYHEATFMEEDRARAKETFHSTAKEAAEIARQAGAKRLLIGHYSGRYKDVQGLLEEAQSVFKPTIAANERMRIDL”, for which the “soluble on expression in E. coli” value is “not soluble”.

Consider “MAAINTKVKKAVIPVAGLGTRMLPATKAIPKEMLPLVDKPLIQYVVNECIAAGITEIVLVTHSSKNSIENHFDTSFELEAMLEKRVKRQLLDEVQSICPPHVTIMQVRQGLAKGLGHAVLCAHPVVGDEPVAVILPDVILDEYESDLSQDNLAEMIRRFDETGHSQIMVEPVADVTAYGVVDCKGVELAPGESVPMVGVVEKPKADVAPSNLAIVGRYVLSADIWPLLAKTPPGAGDEIQLTDAIDMLIEKETVEAYHMKGKSHDCGNKLGYMQAFVEYGIRHNTLGTEFKAWLEEEMGIKK”, for which the “soluble on expression in E. coli” value is recorded as “soluble”.

“MAAKHVLFSTDARQKMLSGVNLLANAVKVTLGPKGRHVVLNKSYGAPTITKDGVSVAKEIELADKFENMGAQMLKQVASKANDEAGDGTTTATVLAQALINEGMKAVAAGMNPMDLKRGIDKAVSAAVEKLHQLAKPCSDTQSITQVGAISANSDHAIGEIIAQAMEKVGRNGVITVEEGQALQNELSVVEGMQFDRGYLSPYFINQPKAGCVELENPYVLLVDKKISHIRELLPILESVAKASRSLLIIAEDVDGDALATLVVNSMRGIIKVAAVKAPGFGEQRKAMLEDIAALTAGRVISEEIGLELEKVTLDDLGSAKKVTINKDNTTIVDGAAEPSALQDRIAQIQHQLEHTTSQYDRDKLQQRIAKLSGGVAVIKIGAATEVEMKEKKDRVDDALHATRAAVEEGIVAGGGVALLKIANELSNLQGDNDDQNVGIRIALRAMEEPLRQIAINAGDEASVIANQVKTGDEHYGYNAATGQFGNMLEMGILDPAKVTRSALQFAASIAGLMITTEAMVSEVDKESAA”: the “soluble on expression in E. coli” value is “not soluble”.

Regarding “MAAKIEDMETRIEALMDVMRVPPGKKINLKKDYDPGFTGKWMTKAEAKETLARGIQMLAEMQDKLWAQNQYAVLMNLQALDAAGKDGTIKHVMSGVNPQGVDVHSFKGPSSEEMDHDYLWRNFKALPSRGRIGIFNRSYYEEVLVVRVHPEFLASQQLPPKLKDKRIWRRRFEEINNFEKYLVDNGIVVIKFFLYVSKEAQKERFLRRTQLPEKNWKFSAADIKERAHWDDYIAAYEDMFNHTSTEWAPWYIVPADHKWFTRLAVAAVLYYTMEKLNLAYPTVSEEQKQALIAAKEELEREDSGPKDKAVVKAEEEEDADPQDPASNGEVPKDESKKESKKKGSKNR”, the “soluble on expression in E. coli” value is “not soluble”.

Consider “MAAKKDYYAILGVPRNATQEEIKRAYKRLARQYHPDVNKSPEAEEKFKEINEAYAVLSDPEKRRIYDTYGTTEAPPPPPPGGYDFSGFDVEDFSEFFQELFGPGLFGGFGRRSRKGRDLRAELPLTLEEAFHGGERVVEVAGRRVSVRIPPGVREGSVIRVPGMGGQGNPPGDLLLVVRLLPHPVFRLEGQDLYATLDVPAPIAVVGGKVRAMTLEGPVEVAVPPRTQAGRKLRLKGKGFPGPAGRGDLYLEVRITIPERLTPEEEALWKKLAEAYYARA”, for which the “soluble on expression in E. coli” value was “soluble”.

For the sequence “MAALVDLVNFQLENAKALSTVLRQETQAITARVSSEIESIAKRKMTLIDQLRTTDQRIASHPHVNQLTEDEHLSQVVAQIQSIVLDCQQVNRVNGESLSRAQLSFNKLNNMLQHTHGKIGMTYNAGGKTHTISTLGTNIKA”, the “soluble on expression in E. coli” value is “not soluble”.

Consider “MAAPASSATLPSVLQLTANTSAGGKRPSRAVTMPALKQAAKAAAAAPSPSPSFHVFADLPDHLLCSPDNSVWVYAQHTLSFLTSEAAAQAKLGRKVQRMMREAQRQYDISCAFFHSMSSDEQMAEVLRVGSGGGALSLPPAMTAATGTPAKSDRKRLTGVHRALRDAWPTWRGPNMSDAANSLTAREVGGAGESESSENRYSAGLRVNIVLDIVASRKTLRTVPLRSRPYRLAEYLYQLVMQPSATQRATAAPALGDMASHVRSLIIGISDADTTLVGCHIVCPYRHLTSPTPMMMRLRRAIEGAADQERARALAAAEAANTTVSGLDTQWQASSAAAAAEAAASDAAPSPLRSLVASHLAHYRRVDALFPAPYVRVPPQSLEQIDQNRLILCTPGKLLDG”, for which the “soluble on expression in E. coli” value is recorded as “not soluble”.

For “MAASPLVVQKTEEEWRAVLSPEQFRILRQKGTEKPGTGEYDKFFEEGIFDCVGCKTPLYKSTTKFDSGCGWPAFFEGLPGAINRTPDPDGRRTEITCAACDGHLGHVFKGEGYGNPTDERHCVNSVSISFNPAKSSSII”, the “soluble on expression in E. coli” value is “soluble”.

For the sequence “MAATQEEIVAGLAEIVNEIAGIPVEDVKLDKSFTDDLDVDSLSMVEVVVAAEERFDVKIPDDDVKNLKTVGDATKYILDHQA”, the “soluble on expression in E. coli” value is “soluble”.

On to “MAAWFECKVTYEKVADNGMPKKVVESYLVDADSFTLAEAKMIEEITPFVSMGEFNISNIRKVNYAELFLNEDDKCDRYYRCKVLYVTIDEKNGVEKKTPAFMLVKSDSLPNAVAELEKQMGKGLADYEIASVAETALMDVFQYVPAQ”, for which the “soluble on expression in E. coli” value is listed as “not soluble”.

In the case of “MADKLFSIRNYFFLGSYQSCIGEALKFSSKNEEEKQEKDVYLYRSYIAQGQAFIPLKEIPAATKSADLAAVRRYAEFRNNPAAKKKILAEVQEEVASRNIKSEIAAVLAATILNEADLSQDAFRAVSRFEGLEARASKVFILIKMNKRKLAIGEVKKMNQIDEDATLSQLANALVTSFGASGKVKDALYIYSEMSDKYGRTTDLEMHQAVVSILTQDYAAAEELLESALERDNKDADVLINSIVSAQLNEKDDDVVERFISQLKHEHPNHPWVIDFNEKEAEFDRVASDSRA”, the “soluble on expression in E. coli” value is “not soluble”.

Take “MADNINESEIIERLNSAPSVRGFFIATVDVFNESIDGLIQRIFRKDNFAVQSVVGPLLQDSGPLGDLSVRLKLLFGLGVLPDDIYHDIEDIIKLKNHLNSDASDYEFTDPNILEPIKKLHLVKKMGMVQLEVNEPDDDIDLEFYQLQLQRQQQIIKSGLSLAIVEICNELGK”: the “soluble on expression in E. coli” value is recorded as “soluble”.

For “MADPPPNPSSVPPNGNLTGTPSAGNAAAVAPMAHEKDRQSKEGDEIVTKSGKKYKLGPVLGEGGYGTVFLSQDDDIKIAVIAVSCFPYIIVQNEVWFKEQKKHHVIHVVHNFSSKLLVNTTKYSRSSTVMRFNLHLITRKSTNYLWRLEKNANFVIVKTGIGKMKQSRPLSPQSLHSLIKNFAPRLTNSQKRRVLVLIFLISWSPISLPFLCTSISHHELIGINVLIKKIYVLQYFLNI”, the “soluble on expression in E. coli” value is reported as “not soluble”.

For “MADRQLLHTAHIPVRWGDMDSYGHVNNTLYFQYLEEARVAWFETLGIDLEGAAEGPVVLQSLHTYLKPVVHPATVVVELYAGRLGTSSLVLEHRLHTLEDPQGTYGEGHCKLVWVRHAENRSTPVPDSIRAAIA”, the “soluble on expression in E. coli” value is reported as “soluble”.

Take “MAEARPDSLTRSRAAKPAGEGAAFSPLYRQIKELLVQSLDRGEWKPGELIPSEIDLAARFQVSQGTVRKAVDELAAEHLLLRRQGKGTFVATHHEARVRYRFLRLAPDEEGEGGRAESRILECRRLRAPAEIARALELRAGETVVTIRRQLSMNHMPTVIDDLWLPGTHFRGLTLELLTASKAPLYGLFESEFGVSMVRADEKLRAVAASPEIAPLLGVEPGRPLLQVDRISYTYGDRPMEVRRGLYLTDHYHYRNSLN”: the “soluble on expression in E. coli” value is given as “soluble”.

For the sequence “MAEDEIVVEEEQSQPQEITPVPPSSSSSPSLVVEDDDEMKLKHLEFIQVAAVYFAACFSTLYELAKDNAGPLKLGVENIEDCVRTVLAPLYEKFHDVPFKLLLFVDRKVDDVFFDVETYVPSLVKQASSQALTVATEVQRTGVVDTTKSIARSVRDKYEPAAEYYAATLWRLLNQLPLFPEVAHLVIPTAFYWSEKYNDAVRYVGDRDYFGAEYLPMIPIEKISDILEQDQCRAD”, the “soluble on expression in E. coli” value is listed as “not soluble”.
